Source: the supplement of paper PMC9170038

What was measured:
MS2 coat protein [1] = assay: apparent KD of MS2 coat protein, switch ON state; designed switch direction (-1 OFF switch, 1 ON switch): -1; higher = weaker reporter binding; conditions: FMN input: 0 or 200 uM; Eterna round: R93 (includes R88 designs)
In short: (§1)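 Illumina sequencing clusters were used for on-chip transcription of designed RNA switches. Titration with SNAP-549-labelled MS2 coat protein followed, in twofold steps from 0.7 or 1.5 nM to 3 µM in 100 mM Tris-HCl pH 7.5, 80 mM KCl, 4 mM MgCl2, without or with constant ligand. Apparent KD is each design's median of fits to normalised cluster binding curves.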

MS2 coat protein [2] = assay: apparent KD of MS2 coat protein, switch OFF state (with FMN for OFF switches, without FMN for ON switches); designed switch direction (-1 OFF switch, 1 ON switch): -1; higher = weaker reporter binding; conditions: FMN input: 0 or 200 uM; Eterna round: R93 (includes R88 designs)
In short: as §1

Row | Sequence | apparent KD of MS2 coat protein (MS2 coat protein [1]) [nM] | apparent KD of MS2 coat protein (MS2 coat protein [2]) [nM]
1 | AACAGUACAGGAUAUACAUGAGGAUCACCCAUGUGAGAAUUAAGUGGAGUACCACAAAGUAGAAGGGUACUGGA [Mat - Exclusion 3 - JL mod - D4] | 28.9 | 202
2 | AACAGUACAGGAUAUACAUGAGGAUCACCCAUGUGAGACUUAAAAGGCGUACCUAAAAGUAGAAGGGUACUGGA [JL Maslow Revisted mod 21] | 56.1 | 176
3 | AACAGUACAGGAUAUACAUGAGGAUCACCCAUGUGAGUUUUAAAAGGCGUACCUAAAAGUAGAAGGGUACUGGA [JL Maslow Revisted mod 20] | 24.3 | 44.2
4 | AACAGUACAGGAUAUACAUGAGGAUCACCCAUGUGGGAGAAAAGAUCGAGAGAUCAAUGUAGAAGGGUACUGGA [JL In the Red 07] | 115 | 80.1
5 | AACAUGUCAGGAUAUGUAGUAAAAAGUGAUCCUCAUAAACUACAGAAGGGACAUGAGGAUCACCCAUGUAAAAA [Ex4: 930] | 27.9 | 21.3
6 | AACAUGUCAGGAUAUUAAAGAAAAGAAAAGAAAGAAAAGAAUAAGAAGGGACAUGAGGAUCACCCAUGUAAGAA [EteRNA is fun!] | 72.1 | 37
7 | AACGUACAUGAGGAUCACCCAUGUUAGGAUAUAUAUACAGGAAAACAUUCUAAUGUAAAUAGAAGGAACGAAAA [Bilbo Confounded 21 - Jieux - Exclusion 1] | 17.1 | 10.8
8 | AACUAGUCAGGAUAUACGAACAUGUCAAAAAACAUAAAGGGACAUGAGGAUCACCCAUGUAGAAGGGACUAGCA [74%, Web mod - With 4 less G's] | 161 | 262
9 | AACUAGUCAGGAUAUGCGAACAGAUAAUAAGCUACACAAAAGCAGAAGGGACAUGAGGAUCACCCAUGUAAAUA [JR_Exc004_Sub502] | 39.3 | 33
10 | AACUGACAUGAGGAUCACCCAUGUCAGGAUAUGACUUCGAAAAAAAAAAAAAACGAUGUCAGAAGGGACAUGGA [Design 66: Sub-opt N] | 17.5 | 27.2
11 | AACUGACAUGAGGAUCACCCAUGUCAGGAUAUGAUUUGACGAAAAAAAAAAAGUCAUAUCAGAAGGGACAUGGG [Design 82: Sub-opt V] | 19 | 17.6
12 | AAGAAACAUGAGGAUCACCCAUGUAAGGAUAUCUAAAAGAAAAGAAAAGAAAGAAGAAAGAGAAGGUACAAAGG [Nebhetepre Mentuhotep II] | 87.3 | 81.3
13 | AAGAAACAUGAGGAUCACCCAUGUGAGGAUAUAGAAAAGAAAAGAAAAGAAAGAAGAACUAGAAGGCACAAAGG [Neferkare (IV) Khendu] | 31.1 | 28.8
14 | AAGAACGCAGGAUAUACAAAAUAAAAGAAAAGAAAGAAAGAACAUGAGGAUCACCCAUGUAGAAGGGCGAAGAA [Sewadjkare] | 52.2 | 49.5
15 | AAGAACGCAGGAUAUAUUAAGGGACAAAGAAGGAAGAAUAAACAUGAGGAUCACCCAUGUAGAAGGGCGAAGAA [JR_Exclusion2_Sub4] | 49.4 | 43.5
16 | AAGAACGGAGGAUAUACAAAAUAAAAGAAAAGAAAGAAAGAACAUGAGGAUCACCCAUGUAGAAGGCUGAAGAA [Merneferre Ay I] | 35.7 | 35.2
17 | AAGAACGUAGGAUAUACAUGAGGAUCACCCAUGUAAAAGAAAGAAAGGGAAAAGAAAAGUAGAAGGACGAAGAA [Hedjkheperre-setepenre Shoshenq I] | 29.7 | 77.9
18 | AAGAACGUAGGAUAUACAUGAGGAUCACCCAUGUAAAAGAAAGAAGGGAAAGAGAAAAGUAGAAGGACGAAGAA [Wahkare Bakenrenef] | 21.6 | 34.4
19 | AAGAACUCAGGAUAUACAUGAGGAUCACCCAUGUAAAAGAAAGAAAGGGAAAAGAAAAGUAGAAGGGAGAAGAA [Hedjkheperre-setpenre Nesbanebdjed] | 28.7 | 34.3
20 | AAGAACUGAGGAUAUACAAAAUAAAAGAAAAGAAAGAAAGAACAUGAGGAUCACCCAUGUAGAAGGCAGAAGAA [Sekhemre Khutawy Sobekhotep I] | 27.6 | 19.7
21 | AAGAACUGAGGAUAUACUUUGGGAAAAGAAAAGAUGAUGUUACAUGAGGAUCACCCAUGUAGAAGGCAGAAGAA [Mat - Exclusion 2 - Mod - D153] | 27 | 37
22 | AAGAAGCAAGGAUAUACAUGAGGAUCACCCAUGUAAAAGAAAGAGGGAAAAGAGAAAAGUAGAAGGUGCAAGAA [Ptolemy VI Philometor] | 22.6 | 54.4

Row | Sequence | apparent KD of MS2 coat protein (MS2 coat protein [1]) [nM] | apparent KD of MS2 coat protein (MS2 coat protein [2]) [nM]
23 | AAGAAGCGAGGAUAUACAUGAGGAUCACCCAUGUAAAAGAAAGAGGGAAAAGAGAAAAGUAGAAGGCGCAAGAA [Philip III Arrhidaeus] | 84.2 | 123
24 | AAGAAGGCAGGAUAUACAAAAUAAAAGAAAAGAAAGAAAGAACAUGAGGAUCACCCAUGUAGAAGGGCUAAGAA [Merhotepre Ini] | 50.9 | 39.3
25 | AAGAAGGUAGGAUAUACAUGAGGAUCACCCAUGUAAAAGAAAGAGGGAAAAGAGAAAAGUAGAAGGACCAAGAA [Ankhmakis] | 34.3 | 50.1
26 | AAGAAGUCAGGAUAUACAUGAAAGAAAGAAAAGAAAAGAAAACAUGAGGAUCACCCAUGUAGAAGGGACAAGAA [EteRNA is fun!] | 54.5 | 50.5
27 | AAGAAGUGAGGAUAUACAUGAGGAUCACCCAUGUAAAAGAAAGAGGGAAAAGAGAAAAGUAGAAGGCACAAGAA [Weserkare-meryamun Ptolemy II Philadelphos] | 35.6 | 33.7
28 | AAGAAGUGAGGAUAUCGAAGACAGACGAAAAGUCUGUCAAACGAGAAGGCACAUGAGGAUCACCCAUGUGGAAA [What have we learned so far? 64% 4] | 30.5 | 34.6
29 | AAGAAGUGAGGAUAUGUCUGUGCGAAAAAAAAAAAGUGCAGACAGAAGGCACAUGAGGAUCACCCAUGUGGGAA [Florian 65% 6] | 76.6 | 87.2
30 | AAGAUCAGAGGAUAUACAUAAGGUGAUGGAGACAUCGCCAAACAUGAGGAUCACCCAUGUAGAAGGCUGAUCAA [Mat - Exclusion 2 - JL mod - D62] | 36.8 | 49.7
31 | AAGCUGGUAGGAUAUACUAGGGCAACUAAUGCACCGAUAGGACAUGAGGAUCACCCAUGUAGAAGGGCCAGAAA [JR_Exc002_Sub404] | 65.5 | 137
32 | AAGGAUCGAGGAUAUACAUAGAUACAGAUACAUGUAGAACUACAUGAGGAUCACCCAUGUAGAAGGCGAUCAUA [AJ 30] | 23.9 | 56.3
33 | AAGGGACAUGAGGAUCACCCAUGUCAGGAUAUGCAAACAACAAACAACAAACAACAAAGCAGAAGGGACAAAAA [63%, Olong, 5] | 29.1 | 24.1
34 | AAGGUACGAGGAUAUACAUAGAUACAGACACAUGUACAUGUACAUGAGGAUCACCCAUGUAGAAGGCGUAUAUA [AJ 19] | 86.1 | 69.7
35 | AAUAAGUGAGGAUAUACUAAAGAAAUGAAAAGGGAUAAAGAACAUGAGGAUCACCCAUGUAGAAGGCACAAUAA ['Aper-'Anat] | 31.9 | 37.2
36 | AAUAAGUGAGGAUAUCGAAGACUGUCGAAAAGACAGUCGAACGAGAAGGCACAUGAGGAUCACCCAUGUGAGGG [Mat - Exaclusion 4 - Eli mod - D69] | 130 | 107
37 | AAUAAGUGAGGAUAUGGAAAUAGUAGAUAAGAUUCCCUAAACCAGAAGGCACAUGAGGAUCACCCAUGUAAAUA [JR_Exc004_Sub005] | 38.7 | 26.4
38 | AAUAAGUGAGGAUAUGUGAAUAGAAGAUAAGAUACCCAAAAACAGAAGGCACAUGAGGAUCACCCAUGUAAAUA [JR_Exc004_Sub009] | 33.7 | 24.3
39 | AAUAGUGGAGGAUAUACAUGAGGAUCACCCAUGUAGAAAGGAAGUGUAUAUAUGGCGUGUAGAAGGCCAAAUAA [Mai Tai 3 ala Nando] | 32.3 | 30.3
40 | AAUGGUGCAGGAUAUACAUGAGGAUCACCCAUGUACAUCAGACAUAUGGUCGAAGCAUGUAGAAGGGCACCAAA [Ex 3May 56] | 145 | 183
41 | AAUUAGGUAGGAUAUACAUGAGGAUCACCCAUGUAGGAAAAAAGCUACGAAAAAGAAUGUAGAAGGACCUAAAA [Ex 3 Sunny] | 13.2 | 18.7
42 | ACAUCUAGAGGAUAUACAUGGAAAAAAAAAAAAAAAAAACUACAUGAGGAUCACCCAUGUAGAAGGCUAGAUGA [Ex2 Design 192: Random 12] | 40.4 | 35.7
43 | ACCAGACAUGAGGAUCACCCAUGUCAGGAUAUGCAUCUUAGGAAAAAAAAACUAAGAUGCAGAAGGGACAAGGG [Design 5: Super Stable - A-U mutation] | 16 | 20.1
44 | ACUUGACAUGAGGAUCACCCAUGUCAGGAUAUAGUAGGACAAAUAAAUAAAAGUUCUACUAGAAGGGAUAUGGG [Design 20: G-U+ 4] | 20.7 | 36.5
